From patent US20240116985A1 (published 2024)
Starred links: 1 amine or outer side, 2 acyl side, 3 side chain; linkers in the order of their positions; H or OH if unused. Positions of bridges follow the written chain, without caps; N, C: chain ends. Non-standard residues stand in square brackets, D forms with d. Primed or numbered codes have the meaning given here. B5(10) = 2-amino-2-(pent-4-en-1-yl)hept-6-enoic acid, bis(4-pentenyl)glycine, stitching residue bearing both staples, C=CCCCC(CCCC=C)(N[*:1])C(=O)[*:2]; SeN″ = (S)-5-(((allyloxy)carbonyl)(methyl)amino)-2-amino-2-methylpentanoic acid (stapling residue), C=CCOC(=O)N(C)CCC[C@](C)(N[*:1])C(=O)[*:2]; B5(4) = 2,2-bis(4-pentenyl)glycine = 2-amino-2-(pent-4-en-1-yl)hept-6-enoic acid (stitching residue), C=CCCCC(CCCC=C)(N[*:1])C(=O)[*:2]; B5(5) = 2,2-bis(4-pentenyl)glycine, 2-amino-2-(pent-4-en-1-yl)hept-6-enoic acid (stitching residue), C=CCCCC(CCCC=C)(N[*:1])C(=O)[*:2]; B5(28) = 2,2-bis(4-pentenyl)glycine, C=CCCCC(CCCC=C)(N[*:1])C(=O)[*:2]; Phe(3,5-F2) = N[C@@H](Cc1cc(F)cc(F)c1)C(=O)O; S7 = C[C@@](CCCCCC=[*:3])(N[*:1])C(=O)[*:2]; Phe(4-F) = N[C@@H](Cc1ccc(F)cc1)C(=O)O; αAllylPro = C=CC[C@@]1(C(=O)O)CCCN1; Aad = N[C@@H](CCCC(=O)O)C(=O)O; S8 = C=CCCCCCC[C@](C)(N)C(=O)O; Aib = CC(C)(N)C(=O)O

T1: beta-Catenin (full-length, Uniprot ID P35222) (Homo sapiens (Human), UniProt P35222 1-781)
T1 construct: also called bCat; B-Catenin
T1 sequence: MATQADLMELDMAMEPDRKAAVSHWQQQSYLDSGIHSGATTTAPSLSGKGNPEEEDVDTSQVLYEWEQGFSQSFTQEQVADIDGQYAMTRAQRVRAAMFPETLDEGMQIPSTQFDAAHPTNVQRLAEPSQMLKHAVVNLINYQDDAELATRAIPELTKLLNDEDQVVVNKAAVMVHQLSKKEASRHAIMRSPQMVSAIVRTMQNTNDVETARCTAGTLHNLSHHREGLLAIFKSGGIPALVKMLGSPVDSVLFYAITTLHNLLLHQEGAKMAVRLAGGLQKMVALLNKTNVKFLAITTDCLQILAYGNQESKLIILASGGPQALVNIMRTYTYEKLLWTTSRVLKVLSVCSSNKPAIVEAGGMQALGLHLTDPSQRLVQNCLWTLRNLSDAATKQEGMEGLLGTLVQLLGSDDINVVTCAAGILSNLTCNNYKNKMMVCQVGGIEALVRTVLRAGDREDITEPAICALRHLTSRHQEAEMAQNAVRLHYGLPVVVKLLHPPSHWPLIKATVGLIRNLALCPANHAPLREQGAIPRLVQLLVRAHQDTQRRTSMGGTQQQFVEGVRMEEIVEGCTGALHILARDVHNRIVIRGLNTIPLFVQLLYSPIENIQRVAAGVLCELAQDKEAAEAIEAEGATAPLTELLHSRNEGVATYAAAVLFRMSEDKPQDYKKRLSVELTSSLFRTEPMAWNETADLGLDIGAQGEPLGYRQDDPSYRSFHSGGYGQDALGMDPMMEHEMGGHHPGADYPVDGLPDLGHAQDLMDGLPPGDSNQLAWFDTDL

T2: full-length beta-Catenin (Uniprot ID P35222) (Homo sapiens (Human), UniProt P35222 2-781)
T2 construct: also called B-Catenin; bCat
T2 sequence: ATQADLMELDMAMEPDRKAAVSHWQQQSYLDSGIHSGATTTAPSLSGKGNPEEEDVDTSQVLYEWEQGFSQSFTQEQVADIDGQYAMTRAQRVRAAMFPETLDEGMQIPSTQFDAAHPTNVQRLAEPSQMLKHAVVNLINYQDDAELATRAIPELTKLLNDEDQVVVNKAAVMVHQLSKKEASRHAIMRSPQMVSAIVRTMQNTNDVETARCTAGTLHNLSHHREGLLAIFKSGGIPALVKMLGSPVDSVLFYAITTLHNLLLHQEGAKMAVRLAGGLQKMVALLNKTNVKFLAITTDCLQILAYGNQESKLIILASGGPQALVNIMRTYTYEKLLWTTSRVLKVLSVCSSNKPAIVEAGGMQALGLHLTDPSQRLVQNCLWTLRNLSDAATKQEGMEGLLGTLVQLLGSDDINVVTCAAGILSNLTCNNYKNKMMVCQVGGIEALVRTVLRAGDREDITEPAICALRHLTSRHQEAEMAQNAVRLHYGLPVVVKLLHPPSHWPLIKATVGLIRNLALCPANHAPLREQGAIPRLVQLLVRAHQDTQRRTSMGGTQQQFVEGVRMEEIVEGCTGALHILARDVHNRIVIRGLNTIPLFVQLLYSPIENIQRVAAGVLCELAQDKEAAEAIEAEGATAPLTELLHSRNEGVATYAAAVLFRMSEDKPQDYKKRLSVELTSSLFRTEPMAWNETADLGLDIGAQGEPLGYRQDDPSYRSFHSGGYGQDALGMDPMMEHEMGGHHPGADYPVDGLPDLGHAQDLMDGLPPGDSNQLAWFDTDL

T3: full-length beta-Catenin (Uniprot ID P35222) (Homo sapiens (Human), UniProt P35222 2-781)
T3 construct: The AlphaScreen assay used a Histidine (Nickel Chelate) detection kit, so a His tag is likely, but no tag is described; also called B-Catenin; bCat
T3 sequence: T2 sequence

B1: I-262: Ac-PL3-Asp-Ala-B5-Asp-Asp-Ala-Ala-Phe-Val-S8-34FF-Trp-Gln-NH2 (peptide)
peptide: XDAXDDAAFVXFWQ
modifications: not fully specified; N-terminal Ac; PL3 at position 1; B5 at position 4; S8 at position 11; 34FF at position 12; C-terminal NH2; stapled by olefin metathesis (PL3-B5 and B5-S8)
notes: It is the earlier-eluting isomer composition
B2: I-123 (peptide)
peptide: Ac-[αAllylPro]DA[B5(4)]DEAAFV[S8]FWQ-NH2
modifications: staple 1-4, 4-11
notes: Stitched (two-staple) peptide composition
B3: I-125 (peptide)
peptide: XDAXDNAAFVXFWQ
modifications: not fully specified; as printed: Ac-PL3-Asp-Ala-B5-Asp-Asn-Ala-Ala-Phe-Val-S8-Phe-Trp-Gln-NH2; staples PL3(1)-B5(4) and B5(4)-S8(11)
notes: as for B2
B4: I-127 (peptide)
peptide: Ac-[αAllylPro]DA[B5(5)]DQAAFV[S8]FWQ-NH2
modifications: staple 1-4, 4-11
notes: as for B2
B5: I-132 (peptide)
peptide: Ac-[αAllylPro]DA[B5(4)]DEAAFV[S7]FWQ-NH2
modifications: staple 1-4, 4-11
notes: as for B2
B6: I-131 (peptide)
peptide: Ac-[αAllylPro]DA[B5(4)]DEAAFV[SeN″]FWQ-NH2
modifications: staple 1-4, 4-11
notes: Stitched (two-staple) peptide composition; same description as I-130, separate later-eluting HPLC peak (staple isomer)
B7: I-129 (peptide)
peptide: Ac-[αAllylPro]DA[B5(10)]D[Aad]AAFV[S8]FWQ-NH2
modifications: staple 1-4, 4-11
notes: as for B2
B8: I-133 (peptide)
peptide: XDAXDEAAFVXFWX
modifications: not fully specified; as printed: Ac-PL3-Asp-Ala-B5-Asp-Glu-Ala-Ala-Phe-Val-S8-Phe-Trp-Aib-NH2; staples PL3(1)-B5(4) and B5(4)-S8(11)
notes: as for B2
B9: I-134 (peptide)
peptide: Ac-[αAllylPro]DA[B5(28)]DEAAFV[S8]FW[Aib]-NH2
modifications: staple 1-4, 4-11
notes: as for B2
B10: I-217 (peptide)
peptide: Ac-[αAllylPro]DA[B5(4)]DEAAXV[S8]FWQ-NH2
modifications: staple 1-4, 4-11; not fully specified (residue 9); printed as Ac-PL3-Asp-Ala-B5-Asp-Glu-Ala-Ala-MeTyr-Val-S8-Phe-Trp-Gln-NH2
notes: Stapled peptide composition; also called Ac-PL3-Asp-Ala-B5-Asp-Glu-Ala-Ala-MeTyr-Val-S8-Phe-Trp-Gln-NH2
B11: I-219 (peptide)
peptide: Ac-[αAllylPro]DA[B5(4)]DEAA[Phe(3,5-F2)]V[S8]FWQ-NH2
modifications: staple 1-4, 4-11
notes: Stapled peptide composition; also called Ac-PL3-Asp-Ala-B5-Asp-Glu-Ala-Ala-35FF-Val-S8-Phe-Trp-Gln-NH2
B12: I-218 (peptide)
peptide: Ac-[αAllylPro]DA[B5(4)]DEAAXV[S8]FWQ-NH2
modifications: staple 1-4, 4-11; not fully specified (residue 9); printed as Ac-PL3-Asp-Ala-B5-Asp-Glu-Ala-Ala-MeTyr-Val-S8-Phe-Trp-Gln-NH2
notes: as for B10

What follows are binders tested against T1, beta-Catenin (full-length, Uniprot ID …) (assay: fluorescence polarization competition: peptide titrated against 10 nM full-length beta-catenin + 10 nM 5FAM-labeled TCF4 residues 10-53 probe).
Method: (§1) The plate was incubated protected from light for 60 minutes at 20° C. prior to read. Reads were performed on a CLARIOstar plate reader (BMG Labtech) in duplicate, and data were fitted to a 1:1 binding model with hill slope using an in-house script. All provided concentrations are final concentrations.
Binder Ac-[αAllylPro]DA[B5(4)]DDAAFV[S8][Phe(4-F)]WQ-NH2 (staple 1-4, 4-11, Stapled peptide) [I-261: Ac-PL3-Asp-Ala-B5-Asp-Asp-Ala-Ala-Phe-Val-S8-4FF-Trp-Gln-NH2] has an IC50 of 5 µM. Binder B1 has an IC50 of 5 µM. Ac-[αAllylPro]DA[B5(4)]DEAA[Phe(3,5-F2)]V[S8]FWQ-NH2 (staple 1-4, 4-11, Stapled (stitched) peptide) [I-219: Ac-PL3-Asp-Ala-B5-Asp-Glu-Ala-Ala-35FF-Val-S8-Phe-Trp-Gln-NH2] was tested, and the IC50 was 2.85 µM.

These binders were tested against T2, full-length beta-Catenin (Uniprot ID …) (assay: Alphascreen competition; biotin-TCF4(10-53) probe with full-length beta-catenin).
Method: as §1, with “Equal volume of the titrated peptide was added to the” for “The”, “and” for “was”, “incubated for 15 minutes at 20° C. Then 4 uL of donor and 4 uL acceptor beads at 10 ug/mL were added to the plate, for a 16 uL reaction pool and” for “incubated”
B2 showed an EC50 of 0.444 µM. B3 showed an EC50 of 0.569 µM. In the case of B4, the EC50 is reported as 0.552 µM. In the case of B5, the EC50 is reported as 5.09 µM. For B6, the EC50 was 0.4 µM. B7 was tested, and the EC50 was 0.083 µM.

What follows are binders tested against T2, full-length beta-Catenin (Uniprot ID …) (assay: fluorescence polarization competition; 5FAM-TCF4(10-53) probe with full-length beta-catenin).
Method: as §1
In the case of B2, the EC50 is reported as 2.11 µM. Binder B3 has an EC50 of 3.06 µM. Work on B4 yielded an EC50 of 4.84 µM. For B8, the EC50 was 5 µM. For B5, the EC50 was 5 µM. Work on B6 yielded an EC50 of 2.16 µM. Binder B9 has an EC50 of 2.7 µM. B7 showed an EC50 of 1.98 µM.

What follows are binders tested against T3, full-length beta-Catenin (Uniprot ID …) (assay: AlphaScreen competition: full-length beta-catenin + biotin-TCF4(10-53) probe, peptide titrated).
Method: as §1, with “Equal volume of the titrated peptide was added to the” for “The”, “and” for “was”, “incubated for 15 minutes at 20° C. Then 4 uL of donor and 4 uL acceptor beads at 10 ug/mL were added to the plate, for a 16 uL reaction pool and” for “incubated”
B10 showed an EC50 of 0.09 µM. In the case of B11, the EC50 is reported as 0.131 µM. B12 showed an EC50 of 0.09 µM.

What follows are binders tested against T3, full-length beta-Catenin (Uniprot ID …) (assay: fluorescence polarization competition: full-length beta-catenin + 5FAM-TCF4(10-53) probe, peptide titrated).
Method: as §1
For B10, the EC50 was 1.96 µM. In the case of B11, the EC50 is reported as 2.85 µM. B12 was tested, and the EC50 was 1.96 µM.
